T1: Peptide 4 of hIL-21 (human)
T1 construct: also called P4
T1 peptide: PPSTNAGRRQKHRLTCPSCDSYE

T2: Peptide 5 of hIL-21 (human)
T2 construct: also called P5
T2 peptide: PPSTNAGRRQKHRLT

T3: Peptide 3 of hIL-21 (human)
T3 construct: also called P3
T3 peptide: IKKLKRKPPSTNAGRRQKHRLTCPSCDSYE


Legend:
human IL-21 [1] = molecular target: T4, human IL-21 (human, UniProt Q9HBE4 25-162, limits assumed); test: cell-based or functional assay
Peptide 4 of hIL-21 = molecular target: T1, Peptide 4 of hIL-21; test: ELISA, biotinylated 2P2 on coated peptide
Protocol: (§1) To detect epitopes of 2P2 and 3A3, peptides consisting of different regions of hIL-21 were synthesized commercially and coated on an ELISA plate, followed by blocking of non-specific binding sites with 3% BSA in PBS. Biotinylated 2P2 or 3A3 were then added to the wells and developed with Streptavidin-HRP and TMB substrates.

Peptide 5 of hIL-21 = molecular target: T2, Peptide 5 of hIL-21; test: ELISA, biotinylated 2P2 on coated peptide
Protocol: as §1

mIL21 = mIL21 (mouse, UniProt Q9ES17); test: ELISA: coated mIL21, biotinylated 2P2, Streptavidin-HRP/TMB, A450
Peptide 3 of hIL-21 = molecular target: T3, Peptide 3 of hIL-21; test: ELISA: coated Peptide 3, biotinylated 2P2, Streptavidin-HRP/TMB, A450
Protocol: as §1

Peptide 1 (P1, 30aa) = molecular target: T5, Peptide 1 (P1, 30aa); test: peptide ELISA: coated peptide, biotinylated 2P2, Streptavidin-HRP/TMB, A450
T5 construct: also called peptide 1 of hIL-21
T5 sequence (peptide, as listed by the source): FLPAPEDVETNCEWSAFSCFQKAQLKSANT
Protocol: as §1

Peptide 2 (P2) = molecular target: T6, Peptide 2 (P2); test: as above
T6 construct: also called peptide 2 of hIL-21; Peptide 2 (P2, 27aa)
T6 sequence (peptide, as listed by the source): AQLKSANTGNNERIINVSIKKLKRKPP
Protocol: as §1

human IL-21 [2] = molecular target: T4, human IL-21; test: SPR (ProtOn XPR36), biotinylated hIL21 immobilised on NLC chip, antibody in flow, triplicates
Protocol: Triplicates SPR measurements were conducted on ProtOn XPR36 (Bio-rad). NLC chips (Bio-rad) were used to immobilise biotinylated hIL21 on ligand channels, followed by flowing through of various concentrations of mouse 2P2 or humanised 2P2.

human IL-21 [3] = molecular target: T4, human IL-21; test: SPR, immobilised mAb, IL-21 in flow; average of the five wells of Table 6 (unit from Table 6); average with range and SD of the five measurements
Protocol: Surface Plasma Resonance binding kinetics assay were performed on a Bio-rad XPR36 system by the direct amine coupling method. Briefly, a flow of mixture of EDC [N-ethyl-N′-(3-diethylamino-propyl) carbodiimide] and NHS (N-hydroxysuccinimide) was used to activate the cell surface of a GLC sensor chip before 25 μg/ml anti-IL-21 mAb was flowed through, then a shot flow of ethanolamine was used to block the remaining active sites on the cell surface. Afterwards, serial diluted solutions of IL-21 from 0 to 40 nM were flown over the cell surface to bind to the immobilized anti-IL-21 mAb molecules. Binding kinetics were performed at 25° C. with a flow rate of 30 μL/min, association time of 3 min and dissociation time of 6 min. The buffer consisted of Hepes, NaCl, tween20, and 1 mg/mL BSA at pH 7.4. The flow cell regeneration buffer between cycles was 15 mM phosphoric acid. Double references were used to process the sensorgrams. The binding curves were globally fit to the 1:1 Langmuir binding model.

T4 sequence (Q9HBE4 25-162 limits assumed): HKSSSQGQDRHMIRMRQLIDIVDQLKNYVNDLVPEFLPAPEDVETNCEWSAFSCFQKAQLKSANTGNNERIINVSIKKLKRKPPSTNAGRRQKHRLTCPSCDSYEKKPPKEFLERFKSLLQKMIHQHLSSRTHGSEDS

bioactivity of human IL-21 (proliferation of Ba/F3-hIL-21 R cells, [3H]-thymidine incorporation) (human IL-21 [1]) | hIL-21 mediated human B cell proliferation (CFSE dilution, flow cytometry) (human IL-21 [1]) | hIL-21 mediated human CD8 T cell activation (granzyme B/perforin double positive cells) (human IL-21 [1]) | binding result (Peptide 4 of hIL-21) | binding result (Peptide 5 of hIL-21) | binding result (mIL21) | binding result (Peptide 3 of hIL-21) | binding result (Peptide 1 (P1, 30aa)) | binding result (Peptide 2 (P2)) | Kd (human IL-21 [2]) | koff (human IL-21 [2]) | Kd (human IL-21 [3]) | Binder
> 10 fold | ~20 fold | > 10 fold | binds | binds | no binding | binds | no binding | no binding | 0.0201 nM | 0.000512 s⁻¹ | 3.33 nM | monoclonal antibody 2P2 (antibody, V domains shown, Mouse monoclonal antibody; it was detected with anti-mouse IgG in ELISA; also called mAb 2P2; m2P2) VH: EVQLQQSGADLVRSGASVKLSCTASGFNIKDYYIHWVKQRPEQGLELIGWIDPESGDTEYAPKFQVKATMTADTSSNTAYLQLSSLTSEDTAVYYCNDGSGYWGQGTTLTVSS VL: not shown
 |  |  |  |  |  |  |  |  | 0.0305 nM | 0.00037 s⁻¹ |  | humanized 2P2 antibody (antibody, V domains shown, it was detected with anti-human IgG in ELISA; also called h2P2; humanised 2P2) VH: QVQLVQSGAEVKKPGASVKVSCKASGFNIKDYYIHWVRQAPGQGLELIGWIDPESGDTNYAQKFQVKATMTRDTSISTAYMELSRLRSDDTAVYYCNDGSGYWGQGTTVTVSS VL: DVVMTQSPLSLPVTLGQPASISCKSSQSLLDSDGETYLNWLQQRPGQSPRRLISLVSKLDSGVPDRFSGSGSGTDFTLKISRVEAEDVGVYYCWQGTHFPYTFGQGTKLEIK

Reference: patent US20190111148A1 (MONASH UNIVERSITY, published 2019)
